Experimental data as given in patent US20200223915A1 (OSAKA UNIVERSITY, published 2020).

T1: wild-type human Claudin 5 protein (human, UniProt O00501 1-218)
T1 construct: also called hCLDN5; CLDN 5
T1 sequence: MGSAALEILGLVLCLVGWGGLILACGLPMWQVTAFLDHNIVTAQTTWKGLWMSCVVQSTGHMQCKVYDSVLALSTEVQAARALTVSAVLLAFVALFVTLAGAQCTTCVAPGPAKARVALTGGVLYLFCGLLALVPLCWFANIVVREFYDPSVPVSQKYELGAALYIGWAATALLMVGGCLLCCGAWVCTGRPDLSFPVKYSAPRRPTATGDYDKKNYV


These binders were tested against T1, wild-type human Claudin 5 protein (assay: FACS screening of hybridoma supernatants on human Claudin 5-expressing HT-1080 cells against mock cells; positive clones).
Procedure: The cells were washed three times with 0.2% BSA-TBS, and then mixed with 100 μL of a secondary antibody solution (FITC conjugated goat anti-mouse IgG+IgM in 1% BSA-PBS (1:400)), followed by a reaction at 4° C. for 1 hour. The cells were washed with 0.2% BSA-TBS, and FACS analysis (FACS caliber, BD Bioscience) was performed.

| binding result | Binder |
| --- | --- |
| binds | antibody 1B3 (antibody, IgG2, V domains shown, Tested as hybridoma culture supernatant in the screening; also called antibody E) VH: QIQLVQSGPELKKPGETVKISCKASGYSFTAHGMSWVKQAPGKGLKWMGWINTYSGVPAYADDFKGRFAFSLETSPSTAFLQINNLKNEDTATYFCTRSHYDRKFGYWGQGTLVTVSA VL: QAVVTQESALTTSPGETVTLTCRSSTGAVTTSNYANWVQEKPDHLFTGLIGDTNNRAPGVPARFSGSLIGDKAALTITGAQTGDEAIYFCALWYSNLWVFGGGTKLTVRG |
| binds | antibody 3A5 (antibody, IgG2a, V domains shown, Tested as hybridoma culture supernatant in the screening; also called antibody G) VH: QVQLQQPGTELVKPGASVKLSCKASGYTFTSYWMHWVKQRPGQGLEWIGNINPSNGGTNYNEKFKSKATLTVDKSSTTAYMLLSSLTSEDSAVYYCARYYGSSFLYWYFDVWGTGTTVTVSS VL: DIVMTQSHKFMSSSVGDRVSITCKASQDVGTAVAWYQQKPGQSPKILIYWASTRHTGVPDRFTGSGSGTDFTLTISNVQSEDLADYFCQQYSSYPTFGSGTKLEIKR |
| binds | antibody 1D1 (antibody, IgG2a, V domains shown, Tested as hybridoma culture supernatant in the screening; also called antibody F) VH: QVQLQQPGAEHVKPGASVKLSCKASGYTFTTYWIHWVKQRPGRGLEWIGRIAPNSGGTKYNENFKSKATLTVDRPSTTAYMQLSGLTSEDSAVYYCARWDFTFGTNLDYWGQGTTLTVSS VL: DIVMTQSQKFMSTSVGDRVSITCKASQNVRTAVAWYQQKPGQSPKALIFLASNRHTGVPDRFTGSGSGTDFTLTITNVQSEDLADYFCLQHWTYPYTFGGGTKLEIKR |
